Experimental data as given in patent US6416738B1, “Pretargeting methods and compounds” (NeoRx Corporation, priority 1973, dated 2002).

Biological target: T1, NR-LU-10 antigen (Homo sapiens, UniProt P16422)
T1 construct: Positive NR-LU-10 tissue reactivity indicates NR-LU-10 antigen expression by such tissues; from tissue; host or cells: carcinoma and normal tissue specimens
T1 sequence (P16422 24-314): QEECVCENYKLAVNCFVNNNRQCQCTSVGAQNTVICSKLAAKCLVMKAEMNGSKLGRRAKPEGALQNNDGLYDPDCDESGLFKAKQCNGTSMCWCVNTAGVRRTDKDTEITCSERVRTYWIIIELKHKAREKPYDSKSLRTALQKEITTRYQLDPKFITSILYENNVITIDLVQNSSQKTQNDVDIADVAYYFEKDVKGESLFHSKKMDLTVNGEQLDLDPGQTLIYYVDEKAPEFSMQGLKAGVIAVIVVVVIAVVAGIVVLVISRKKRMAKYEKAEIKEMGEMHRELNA
Assay: NR-LU-10 reactivity with normal tissues (Table B)
Assay type: binding
Excerpt: Radioimmunoassays, immunoprecipitation and Fluorescence-Activated Cell Sorter (FACS) analysis were used to obtain reactivity profiles of NR-LU-10. The NR-LU-10 target antigen was present on either fixed cultured cells or in detergent extracts of various types of cancer cells. For example, the NR-LU-10 antigen is found in small cell lung, non-small cell lung, colon, breast, renal, ovarian, pancreatic, and other carcinoma tissues. Tumor reactivity of the NR-LU-10 antibody is set forth in Table A, while NR-LU-10 reactivity with normal tissues is set forth in Table B. The values in Table B are obtained as described below. Positive NR-LU-10 tissue reactivity indicates NR-LU-10 antigen expression by such tissues.
The tissue specimens were scored in accordance with three reactivity parameters: (1) the intensity of the reaction; (2) the uniformity of the reaction within the cell type; and (3) the percentage of cells reactive with the antibody. These three values are combined into a single weighted comparative value between 0 and 500, with 500 being the most intense reactivity. This comparative value facilitates comparison of different tissues. Table B includes a summary reactivity value, the number of tissue samples examined and the number of samples that reacted positively with NR-LU-10.

[1] = Salivary Gland: Acinar Epithelium
[2] = Salivary Gland: Duct Epithelium
[3] = Spleen: Lymphoid Follicle-Central
[4] = Spleen: Lymphoid Follicle-Peripheral
[5] = Spleen: Trabecular Smooth Muscle
[6] = Stomach: Muscularis Mucosa/Externa
[7] = Stromal Tissue: Arteriolar Smooth Muscle
[8] = Stromal Tissue: Fibrous Connective Tissue
[9] = Stromal Tissue: Mast Cells/Eosinophils
[10] = Tonsil: Lymphoid Follicle-Central
[11] = Tonsil: Lymphoid Follicle-Peripheral
[12] = Urinary Bladder: Mucosal Epithelium
[13] = Vagina/Cervix: Epithelial Glands
[14] = Vagina/Cervix: Squamous Epithelium

B1: NR-LU-10: 150 kilodalton IgG2b monoclonal antibody recognizing an approximately 40 kilodalton glycoprotein antigen expressed on most carcinomas (antibody, V domains shown)
VH: EVQLQQSGAELVKPGASVRLSCTASGFNIKDTYMHWVIERPEQGLEWIGRIDPANGNTKCDPKFQGKATITADTSSNTAYLQLSSLTSEDTAVYYCSREVLTGTWSLDYWGQGTSVTVSS
VL: DIQMIQSPSSMFASLGDRVSLSCRASQGIRGNLDWYQQKPGGTIKLLIYSTSNLNSGVPSRFSGSGSGSDYSLTISSLDSEDFADYYCLQRNAYPYTFGGGTKLEIK
Q: What does the source list for B1?
A: Summary Reactivity (Nerve: Endoneurium): 0; # Pos/Exam (Nerve: Neurolemma): 0/2; Summary Reactivity (Nerve: Neurolemma): 0; # Pos/Exam (Nerve: Neuron): 0/2; Summary Reactivity (Nerve: Neuron): 0; # Pos/Exam (Nerve: Perineurium): 0/2; Summary Reactivity (Nerve: Perineurium): 0; # Pos/Exam (Ovary: Corpus Luteum): 0/3; Summary Reactivity (Ovary: Corpus Luteum): 0; # Pos/Exam (Ovary: Eipthelium): 1/1; Summary Reactivity (Ovary: Eipthelium): 270; # Pos/Exam (Ovary: Granulosa): 1/3; Summary Reactivity (Ovary: Granulosa): 400; # Pos/Exam (Ovary: Serosa): 0/3; Summary Reactivity (Ovary: Serosa): 0; # Pos/Exam (Ovary: Theca): 0/3; Summary Reactivity (Ovary: Theca): 0; # Pos/Exam (Oviduct: Epithelium): 1/1; Summary Reactivity (Oviduct: Epithelium): 500; # Pos/Exam (Oviduct: Smooth Muscle): 0/3; Summary Reactivity (Oviduct: Smooth Muscle): 0; # Pos/Exam (Pancreas: Acinar Cell): 3/3; Summary Reactivity (Pancreas: Acinar Cell): 500; # Pos/Exam (Pancreas: Duct Epthelium): 3/3; Summary Reactivity (Pancreas: Duct Epthelium): 500; # Pos/Exam (Pancreas: Islet Cell): 3/3; Summary Reactivity (Pancreas: Islet Cell): 500; # Pos/Exam (Peritoneum: Mesothelium): 0/1; Summary Reactivity (Peritoneum: Mesothelium): 0; # Pos/Exam (Pituitary: Adenohypophysis): 2/2; Summary Reactivity (Pituitary: Adenohypophysis): 500; # Pos/Exam (Pituitary: Neurohypophysis): 0/2; Summary Reactivity (Pituitary: Neurohypophysis): 0; # Pos/Exam (Placenta: Trophoblasts): 0/3; Summary Reactivity (Placenta: Trophoblasts): 0; # Pos/Exam (Prostate: Concretions): 0/3; Summary Reactivity (Prostate: Concretions): 0; # Pos/Exam (Prostate: Glandular Epithelium): 3/3; Summary Reactivity (Prostate: Glandular Epithelium): 400; # Pos/Exam (Prostate: Smooth Muscle): 0/3; Summary Reactivity (Prostate: Smooth Muscle): 0; # Pos/Exam (Rectum: Lymph Node): 0/2; Summary Reactivity (Rectum: Lymph Node): 0; # Pos/Exam (Rectum: Mucosal Epithelium): 0/2; Summary Reactivity (Rectum: Mucosal Epithelium): 0; # Pos/Exam (Rectum: Muscularis Externa): 0/1; Summary Reactivity (Rectum: Muscularis Externa): 0; # Pos/Exam (Rectum: Muscularis Mucosa): 0/3; Summary Reactivity (Rectum: Muscularis Mucosa): 0; # Pos/Exam (Rectum: Nerve Ganglia): 0/3; Summary Reactivity (Rectum: Nerve Ganglia): 0; # Pos/Exam [1]: 3/3; Summary Reactivity [1]: 500; # Pos/Exam [2]: 3/3; Summary Reactivity [2]: 500; # Pos/Exam (Skin: Apocrine Glands): 3/3; Summary Reactivity (Skin: Apocrine Glands): 280; # Pos/Exam (Skin: Basal Layer): 3/3; Summary Reactivity (Skin: Basal Layer): 33; # Pos/Exam (Skin: Epithelium): 1/3; Summary Reactivity (Skin: Epithelium): 10; # Pos/Exam (Skin: Follicle): 1/1; Summary Reactivity (Skin: Follicle): 190; # Pos/Exam (Skin: Stratum Corneum): 0/3; Summary Reactivity (Skin: Stratum Corneum): 0; # Pos/Exam (Spinal Cord: Axons, Myelinated): 0/2; Summary Reactivity (Spinal Cord: Axons, Myelinated): 0; # Pos/Exam (Spinal Cord: Microglial): 0/2; Summary Reactivity (Spinal Cord: Microglial): 0; # Pos/Exam (Spinal Cord: Neurons): 0/2; Summary Reactivity (Spinal Cord: Neurons): 0; # Pos/Exam [3]: 0/3; Summary Reactivity [3]: 0; # Pos/Exam [4]: 0/3; Summary Reactivity [4]: 0; # Pos/Exam [5]: 0/3; Summary Reactivity [5]: 0; # Pos/Exam (Stomach: Chief Cells): 3/3; Summary Reactivity (Stomach: Chief Cells): 290; # Pos/Exam (Stomach: Mucosal Epithelium): 3/3; Summary Reactivity (Stomach: Mucosal Epithelium): 367; # Pos/Exam [6]: 0/3; Summary Reactivity [6]: 0; # Pos/Exam (Stomach: Parietal Cells): 3/3; Summary Reactivity (Stomach: Parietal Cells): 290; # Pos/Exam (Stomach: Smooth Muscle): 0/3; Summary Reactivity (Stomach: Smooth Muscle): 0; # Pos/Exam (Stromal Tissue: Adipose): 0/63; Summary Reactivity (Stromal Tissue: Adipose): 0; # Pos/Exam [7]: 0/120; Summary Reactivity [7]: 0; # Pos/Exam (Stromal Tissue: Endothelium): 0/120; Summary Reactivity (Stromal Tissue: Endothelium): 0; # Pos/Exam [8]: 0/120; Summary Reactivity [8]: 0; # Pos/Exam (Stromal Tissue: Macrophages): 0/117; Summary Reactivity (Stromal Tissue: Macrophages): 0; # Pos/Exam [9]: 0/86; Summary Reactivity [9]: 0; # Pos/Exam (Testis: Interstitial Cells): 0/3; Summary Reactivity (Testis: Interstitial Cells): 0; # Pos/Exam (Testis: Sertoli Cells): 3/3; Summary Reactivity (Testis: Sertoli Cells): 93; # Pos/Exam (Thymus: Hassal's Epithelium): 3/3; Summary Reactivity (Thymus: Hassal's Epithelium): 147; # Pos/Exam (Thymus: Hassal's Keratin): 3/3; Summary Reactivity (Thymus: Hassal's Keratin): 333; # Pos/Exam (Thymus: Lymphoid Cortex): 0/3; Summary Reactivity (Thymus: Lymphoid Cortex): 0; # Pos/Exam (Thymus: Lymphoid Medulla): 3/3; Summary Reactivity (Thymus: Lymphoid Medulla): 167; # Pos/Exam (Thyroid: C-Cells): 0/3; Summary Reactivity (Thyroid: C-Cells): 0; # Pos/Exam (Thyroid: Colloid): 0/3; Summary Reactivity (Thyroid: Colloid): 0; # Pos/Exam (Thyroid: Follicular Epithelium): 3/3; Summary Reactivity (Thyroid: Follicular Epithelium): 500; # Pos/Exam (Tonsil: Epithelium): 1/3; Summary Reactivity (Tonsil: Epithelium): 500; # Pos/Exam [10]: 0/3; Summary Reactivity [10]: 0; # Pos/Exam [11]: 0/3; Summary Reactivity [11]: 0; # Pos/Exam (Tonsil: Mucus Gland): 1/1; Summary Reactivity (Tonsil: Mucus Gland): 300; # Pos/Exam (Tonsil: Striated Muscle): 0/3; Summary Reactivity (Tonsil: Striated Muscle): 0; # Pos/Exam (Umbilical Cord: Epithelium): 0/3; Summary Reactivity (Umbilical Cord: Epithelium): 0; # Pos/Exam [12]: 3/3; Summary Reactivity [12]: 433; # Pos/Exam (Urinary Bladder: Serosa): 0/1; Summary Reactivity (Urinary Bladder: Serosa): 0; # Pos/Exam (Urinary Bladder: Smooth Muscle): 0/3; Summary Reactivity (Urinary Bladder: Smooth Muscle): 0; # Pos/Exam (Uterus: Endometrial Epithelium): 3/3; Summary Reactivity (Uterus: Endometrial Epithelium): 500; # Pos/Exam (Uterus: Endometrial Glands): 3/3; Summary Reactivity (Uterus: Endometrial Glands): 500; # Pos/Exam (Uterus: Smooth Muscle): 0/3; Summary Reactivity (Uterus: Smooth Muscle): 0; # Pos/Exam [13]: 1/1; Summary Reactivity [13]: 500; # Pos/Exam (Vagina/Cervix: Smooth Muscle): 0/2; Summary Reactivity (Vagina/Cervix: Smooth Muscle): 0; # Pos/Exam [14]: 1/1; Summary Reactivity [14]: 200
